From patent US20250368754A1 (KANAPH THERAPEUTICS, published 2025)

Assays:
human LTβR on A375 cells = target: T1, human LTβR on A375 cells (human, UniProt P36941 31-435); experiment: flow cytometry on A375 cells, serial dilution from 500 nM, anti-human IgG detection
T1 construct: whole, on cells; Endogenous receptor of a human cell line; also called LTβR expressing A375 cells; LTβR expressing cell line
Procedure: Specifically, the A375 cell line was prepared by suspending in a FACS buffer solution at 1×10⁵ cells/100 μL, and treated with 100 μL each of T3.01, T3.07, T3.04, and T3.18 prepared by suspending at 500 nM and diluting by serial dilution. The cells were washed twice with a FACS buffer solution. The cells were stained with an anti-human IgG antibody (Biolegend). The expression ratio of the stained cells was measured using BD LSR and analyzed using FlowJo software.

[1] = target: T2, recombinant human herpes virus entry mediator (HVEM) (human, UniProt Q92956 39-202); experiment: SPR, human HVEM immobilised on CM5, fusion protein as analyte, 1:1 binding model
T2 construct: neither construct is described; also called human HVEM; recombinant human HVEM protein (R&D systems)
T2 sequence (looked up): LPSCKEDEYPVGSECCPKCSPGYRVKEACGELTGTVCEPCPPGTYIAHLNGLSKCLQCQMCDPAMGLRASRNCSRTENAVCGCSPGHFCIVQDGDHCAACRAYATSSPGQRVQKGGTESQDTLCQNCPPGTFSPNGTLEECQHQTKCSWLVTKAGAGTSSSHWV
Procedure: Specifically, the surface of the CM5 chip was activated with a 1:1 mixture of […], and 5 to 6 μg/mL of human HVEM was immobilized for 60 seconds at a rate of 10 μL/min. The remaining active ester groups were blocked with 1 M ethanolamine. T3.01, T3.07, T3.09, T3.14, and T3.18 were each diluted to 100 nM in 1×HBS-EP+buffer solution and diluted by serial dilution. The diluted fusion proteins were reacted at a rate of 30 μL/min. The association and dissociation times were 180 seconds and 400 seconds, respectively. After the dissociation step, stabilization was performed for 60 seconds, and then the regeneration step was performed for 30 seconds with a 10 mM glycine pH 1.5 solution at a rate of 30 μL/min.

T1 sequence (P36941 31-435): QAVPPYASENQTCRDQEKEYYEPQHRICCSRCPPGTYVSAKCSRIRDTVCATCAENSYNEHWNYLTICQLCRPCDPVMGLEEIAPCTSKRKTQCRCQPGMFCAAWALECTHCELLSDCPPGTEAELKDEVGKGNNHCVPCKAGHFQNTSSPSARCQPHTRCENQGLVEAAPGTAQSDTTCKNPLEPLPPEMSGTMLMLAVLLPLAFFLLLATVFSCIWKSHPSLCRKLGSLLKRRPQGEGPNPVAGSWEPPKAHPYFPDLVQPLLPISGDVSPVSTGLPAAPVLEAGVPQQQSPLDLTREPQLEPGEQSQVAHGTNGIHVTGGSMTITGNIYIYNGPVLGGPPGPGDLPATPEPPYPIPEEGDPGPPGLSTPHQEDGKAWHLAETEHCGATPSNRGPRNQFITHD

B1: T3.01 (anti-hu FAP/hu scLIGHT3, hu IgG1 DANG) (bispecific antibody)
heavy: QVQLVQSGAEVKKPGASVKVSCKTSRYTFTEYTIHWVRQAPGQRLEWIGGINPNNGIPNYNQKFKGRVTITVDTSASTAYMELSSLRSEDTAVYYCARRRIAYGYDEGHAMDYWGQGTLVTVSSASTKGPSVFPLAPSSKSTSGGTAALGCLVKDYFPEPVTVSWNSGALTSGVHTFPAVLQSSGLYSLSSVVTVPSSSLGTQTYICNVNHKPSNTKVDKKVEPKSCDKTHTCPPCPAPELLGGPSVFLFPPKPKDTLMISRTPEVTCVVVAVSHEDPEVKFNWYVDGVEVHNAKTKPREEQYGSTYRVVSVLTVLHQDWLNGKEYKCKVSNKALPAPIEKTISKAKGQPREPQVYTLPPSRDELTKNQVSLWCLVKGFYPSDIAVEWESNGQPENNYKTTPPVLDSDGSFFLYSKLTVDKSRWQQGNVFSCSVMHEALHNHYTQKSLSLSPGK
light: not shown
chain: not shown
notes: Knob-into-hole heterodimer: one anti-FAP Fab arm and one single-chain human LIGHT (91-240) homotrimer arm
For B1, the “percent of cells bound” value (human LTβR on A375 cells) was ≥ 96%, the Kd [1] was 4.24 nM and the koff [1] was 0.00119 s⁻¹. The kon [1] was 281000 M⁻¹ s⁻¹.
